For the series, the system named is T1, Tn5401 TnpA transposase (Bacillus thuringiensis var. morrisoni EG2158).
T1 sequence: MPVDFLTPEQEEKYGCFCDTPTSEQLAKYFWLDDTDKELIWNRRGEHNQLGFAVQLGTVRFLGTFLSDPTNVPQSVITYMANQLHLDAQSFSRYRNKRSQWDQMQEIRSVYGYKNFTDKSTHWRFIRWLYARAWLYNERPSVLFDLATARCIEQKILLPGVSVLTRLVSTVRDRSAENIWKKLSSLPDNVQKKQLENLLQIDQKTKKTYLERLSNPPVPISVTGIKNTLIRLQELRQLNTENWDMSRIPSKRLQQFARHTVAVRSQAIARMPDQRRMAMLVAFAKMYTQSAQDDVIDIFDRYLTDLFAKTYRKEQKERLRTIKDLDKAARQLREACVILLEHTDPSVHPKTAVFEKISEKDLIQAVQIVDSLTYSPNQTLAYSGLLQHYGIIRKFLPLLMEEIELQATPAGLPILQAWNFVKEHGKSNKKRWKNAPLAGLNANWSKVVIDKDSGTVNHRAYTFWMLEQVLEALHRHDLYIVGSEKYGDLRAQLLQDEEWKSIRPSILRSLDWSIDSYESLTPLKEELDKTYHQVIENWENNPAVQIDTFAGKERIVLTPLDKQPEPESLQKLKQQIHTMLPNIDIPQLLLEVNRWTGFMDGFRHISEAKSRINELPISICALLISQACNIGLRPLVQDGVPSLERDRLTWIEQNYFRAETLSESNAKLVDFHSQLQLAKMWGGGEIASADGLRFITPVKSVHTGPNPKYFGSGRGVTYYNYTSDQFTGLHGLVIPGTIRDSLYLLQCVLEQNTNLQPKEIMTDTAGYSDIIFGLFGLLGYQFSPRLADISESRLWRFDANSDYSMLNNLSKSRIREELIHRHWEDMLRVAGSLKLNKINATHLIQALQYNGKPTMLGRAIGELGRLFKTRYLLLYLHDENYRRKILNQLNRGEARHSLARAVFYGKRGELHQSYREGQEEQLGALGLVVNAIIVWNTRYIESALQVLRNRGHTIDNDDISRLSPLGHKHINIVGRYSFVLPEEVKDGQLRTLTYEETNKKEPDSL
In words: cell_activity. Particulars: pEG922 in plasmid-free B.t. EG7566; 10^-1 to 10^-2 in a plasmid-containing strain; functional transposition, binding not measured directly.

Experimental findings from patent publication US5441884 are described below.

Take “Tn5401 transposon with 53 bp terminal inverted repeats”: the activity (transposition frequency) came to 0.0001.
